In paper PMC9890572:
Where “and” joins values, the source holds several entries; their conditions need not be identical. Equal entries are not always repeated.

Target: smBiT–β-arrestin2 (UniProt P32121)
Assay: split reporter

Sequence of UniProt P32121 (P32121 whole entry): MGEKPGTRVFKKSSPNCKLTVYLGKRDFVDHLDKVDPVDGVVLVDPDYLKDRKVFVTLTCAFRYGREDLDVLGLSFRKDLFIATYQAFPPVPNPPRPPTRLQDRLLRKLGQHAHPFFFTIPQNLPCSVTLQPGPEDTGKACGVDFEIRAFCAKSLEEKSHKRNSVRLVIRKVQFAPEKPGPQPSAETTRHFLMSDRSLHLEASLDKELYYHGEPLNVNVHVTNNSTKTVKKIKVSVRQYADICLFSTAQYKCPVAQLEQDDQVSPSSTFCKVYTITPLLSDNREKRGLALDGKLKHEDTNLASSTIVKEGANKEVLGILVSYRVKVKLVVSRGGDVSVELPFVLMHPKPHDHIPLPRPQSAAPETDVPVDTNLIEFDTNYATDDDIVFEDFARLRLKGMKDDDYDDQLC

other: -7.6 and -5.9
Substance: Gαi-LgBiT (from UniProt P63096 1-354) (natural protein)
